Patent US20240343803A1 (SHANDONG SIMCERE BIOPHARMACEUTICAL, published 2024)

T1: human PVRIG-his (AcroBiosystems, Cat NO. PVG-H52H4) (human, UniProt Q6DKI7 41-171, limits assumed)
T1 construct: also called human PVRIG protein
T1 sequence (looked up): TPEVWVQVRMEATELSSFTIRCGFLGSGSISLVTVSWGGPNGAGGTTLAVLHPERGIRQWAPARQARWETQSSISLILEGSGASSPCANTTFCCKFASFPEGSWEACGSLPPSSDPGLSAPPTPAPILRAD

T2: cynomolgus monkey PVRIG on FlpinCHO-cyno PVRIG cells (cynomolgus monkey, UniProt A0A2K5WVV8 41-322)
T2 construct: whole, on cells
T2 sequence: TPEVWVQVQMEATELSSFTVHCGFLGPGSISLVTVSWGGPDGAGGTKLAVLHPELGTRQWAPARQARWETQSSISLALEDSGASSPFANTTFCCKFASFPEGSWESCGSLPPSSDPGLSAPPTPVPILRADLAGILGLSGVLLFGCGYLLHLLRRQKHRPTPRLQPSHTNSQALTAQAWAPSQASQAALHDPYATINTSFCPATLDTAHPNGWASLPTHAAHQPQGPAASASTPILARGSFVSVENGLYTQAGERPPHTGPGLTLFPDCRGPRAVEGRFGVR


What was measured:
[1] = molecular target: T1, human PVRIG-his (AcroBiosystems, Cat …); experiment: SPR (BIAcore), antibody captured on Protein A chip, human PVRIG-His analyte
Description: Biacore was used to detect the specific binding between anti-PVRIG antibody and human PVRIG protein. Protein A chip was used in the BIAcore assay. The time required for the chip to capture the diluted antibody and saturate the binding antigen to reach Rₘₐₓ (Maximum binding capacity, 50 RU) was measured by manual run. […] The affinity of antibody for antigen was measured by multi-cycle kinetics. In each cycle, the antibodies were injected prior to the injection of gradient concentraions of PVRIG proteins allowing the occurrence of antibody-antigen association and dissociation After each cycle, the Protein A chip was regenerated by Glycine, pH 1.5 (to remove the proteins on the chip). The affinity of antibody for antigen was calculated by BIAcore T200 analysis software.
The methods refer to Example 10.

[2] = molecular target: T2, cynomolgus monkey PVRIG on …; experiment: FACS, FlpinCHO-cyno PVRIG cells
Description: The antibodies were diluted from the highest concentration of 46 nM (two-fold concentration) with staining buffer by 3.3-fold serial dilution. The diluted antibodies were added to the well containing 50 μL of cell suspension. The plate was placed on a microplate shaker at 400 rpm for 1 minute to fully mix the antibodies and cells, and then incubated at 4° C. for 30 minutes. After the incubation, the cells were washed twice with staining buffer (200 μL per well) and centrifuged at 350×g for 5 minutes to discard the supernatant. The PE goat anti-human IgG Fc antibody (ebioscience, 12-4998-82) was diluted 250 times with staining buffer, added into the washed wells (100 μL per well), mixed well, and stained at 4° C. for 30 minutes. After staining, the cells were washed twice with staining buffer, finally resuspended with 200 μL staining buffer and analyzed by flow cytometry (BD, Canto II). The stronger the signal, the stronger the ability of the antibodies binds to PVRIG. An antibody binding curve was drawn with concentration of antibodies as the abscissa and the corresponding Mean Fluorescence Intensity (MFI) as the ordinate. The AUC value of the curve was calculated by using a Four Parameter Logistic Fit (GraphPadPrism9). The stronger the AUC value, the stronger the ability of the antibodies binds to FlpinCHO-PVRIG and FlpinCHO-cyno PVRIG. […] The binding activity of the antibodies was normalized to the positive control COM701-hIgG1 and SRF813-hIgG1. The higher the percentage value, the stronger the binding ability of the antibodies.
The methods refer to Example 19. The stronger the AUC value, the stronger the ability of the humanized antibodies binds to FlpinCHO-human/cyno PVRIG.

Binder | Kd [1] | koff [1] | kon [1] | AUC % to COM701-hIgG1 [2] | AUC % to SRF813-hIgG1 [2] | AUC % to parental Ab [2]
PVRIG-A105-H1 (Fc fusion, humanized variant of PVRIG-A105; also called A105.VH1; not shown: constant part not restated for the humanized forms; parents are VHH-hinge-CH2-CH3 of human IgG1; detected by anti-human) EVQLVESGGGLVQPGGSLRLSCAASGRTFDRHTMSWFRQAPGKEREFVATASRIPGDTYYVDSVKGRFTISRDNAKNSLYLQMNSLRAEDTAVYYCAATSAYCSEVDCYEKGSWYDNWGQGTMVTVSS | 0.932 nM | 0.0013 s⁻¹ | 1.39e+06 M⁻¹ s⁻¹ | 81.3% | 101% | 93%
PVRIG-A105-H3 (Fc fusion, humanized variant of PVRIG-A105; also called A105.VH3; not shown: constant part not restated for the humanized forms; parents are VHH-hinge-CH2-CH3 of human IgG1; detected by anti-human) EVQLVESGGGLVQPGGSLRLSCAASGRTFDRHTMTWFRQAPGKEREFVATASRIPGDTYYVDSVKGRFTISRDNAKNSVYLQMNSLRAEDTAVYYCAATSAYCSEVDCYEKGSWYDNWGQGTMVTVSS | 0.622 nM | 0.000576 s⁻¹ | 925000 M⁻¹ s⁻¹ | 86.4% | 107% | 98.8%
PVRIG-A105-H4 (Fc fusion, humanized variant of PVRIG-A105; also called A105.VH4; not shown: constant part not restated for the humanized forms; parents are VHH-hinge-CH2-CH3 of human IgG1; detected by anti-human) EVQLVESGGGLVQPGGSLRLSCAASGRTFDRHTMTWFRQAPGKEREFVATASRIPGDTYYSHSVKGRFTISRDNAKNSLYLQMNSLRAEDTAVYYCAATSAYCSEVDCYEKGSWYDNWGQGTMVTVSS | 0.796 nM | 0.000773 s⁻¹ | 972000 M⁻¹ s⁻¹ | 80.3% | 99.6% | 91.8%
PVRIG-A50-H1a (Fc fusion, humanized variant of PVRIG-A50; also called A50.VH1a; not shown: constant part not restated for the humanized forms; parents are VHH-hinge-CH2-CH3 of human IgG1; detected by anti-human) EVQLVESGGGLVQPGGSLRLSCAASGFTFSYYDMSWVRQAPGKGLEWVSTINSDGGRTSYVDSVKGRFTISRDNSKNTLYLQMNSLRAEDTAVYYCVEGDPHNFGLENLSLRDFGSWGQGTMVTVSS | 0.0451 nM | 1.92e-05 s⁻¹ | 425000 M⁻¹ s⁻¹ | 40.7% | 50% | 86.5%
PVRIG-A50-H1d (Fc fusion, humanized variant of PVRIG-A50; also called A50.VH1d; not shown: constant part not restated for the humanized forms; parents are VHH-hinge-CH2-CH3 of human IgG1; detected by anti-human) EVQLVESGGGLVQPGGSLRLSCAASGFTFSYYDMSWVRQAPGKGLEWVSTINSNGGRTSYVDSVKGRFTISRDNSKNTLYLQMNSLRAEDTAVYYCVEGDPHNFGLESLSLRDFGSWGQGTMVTVSS | 0.0545 nM | 1.43e-05 s⁻¹ | 262000 M⁻¹ s⁻¹ | 48.6% | 59.7% | 103%
PVRIG-A50-H1 (Fc fusion, humanized variant of PVRIG-A50; also called A50.VH1; not shown: constant part not restated for the humanized forms; parents are VHH-hinge-CH2-CH3 of human IgG1; detected by anti-human) EVQLVESGGGLVQPGGSLRLSCAASGFTFSYYDMSWVRQAPGKGLEWVSTINSNGGRTSYVDSVKGRFTISRDNSKNTLYLQMNSLRAEDTAVYYCVEGDPHNFGLENLSLRDFGSWGQGTMVTVSS | 0.0362 nM | 1.48e-05 s⁻¹ | 410000 M⁻¹ s⁻¹ | 45.2% | 55.5% | 96%
PVRIG-A50-H2a (Fc fusion, humanized variant of PVRIG-A50; also called A50.VH2a; not shown: constant part not restated for the humanized forms; parents are VHH-hinge-CH2-CH3 of human IgG1; detected by anti-human) EVQLVESGGGLVQPGGSLRLSCAASGFTFSYYDMSWVRQAPGKGLEWVSTINSNAGRTSYVDSVKGRFTISRDNTKNTLYLQMNSLRAEDTAVYYCVEGDPHNFGLESLSLRDFGSWGQGTMVTVSS | 0.0585 nM | 1.61e-05 s⁻¹ | 276000 M⁻¹ s⁻¹ | 42.4% | 52.1% | 90.2%
PVRIG-A50-H1b (Fc fusion, humanized variant of PVRIG-A50; also called A50.VH1b; not shown: constant part not restated for the humanized forms; parents are VHH-hinge-CH2-CH3 of human IgG1; detected by anti-human) EVQLVESGGGLVQPGGSLRLSCAASGFTFSYYDMSWVRQAPGKGLEWVSTINSDGGRTSYVDSVKGRFTISRDNSKNTLYLQMNSLRAEDTAVYYCVEGDPHNFGLESLSLRDFGSWGQGTMVTVSS | 0.0804 nM | 2.82e-05 s⁻¹ | 350000 M⁻¹ s⁻¹ | 34.4% | 42.2% | 73.1%
PVRIG-A50-H1c (Fc fusion, humanized variant of PVRIG-A50; also called A50.VH1c; not shown: constant part not restated for the humanized forms; parents are VHH-hinge-CH2-CH3 of human IgG1; detected by anti-human) EVQLVESGGGLVQPGGSLRLSCAASGFTFSYYDMSWVRQAPGKGLEWVSTINSDGGRTSYVDSVKGRFTISRDNSKNTLYLQMNSLRAEDTAVYYCVEGDPHNFGLENLALRDFGSWGQGTMVTVSS | 0.0462 nM | 2.03e-05 s⁻¹ | 438000 M⁻¹ s⁻¹ | 38.8% | 47.6% | 82.5%
PVRIG-A50-H1e (Fc fusion, humanized variant of PVRIG-A50; also called VH1e; not shown: constant part not restated for the humanized forms; parents are VHH-hinge-CH2-CH3 of human IgG1; detected by anti-human) EVQLVESGGGLVQPGGSLRLSCAASGFTFSYYDMSWVRQAPGKGLEWVSTINSNAGRTSYVDSVKGRFTISRDNSKNTLYLQMNSLRAEDTAVYYCVEGDPHNFGLESLSLRDFGSWGQGTMVTVSS | 0.0551 nM | 1.46e-05 s⁻¹ | 265000 M⁻¹ s⁻¹ | 43.3% | 53.2% | 92%
PVRIG-A118-H4 (Fc fusion, humanized variant of PVRIG-A118; also called A118.VH4; not shown: constant part not restated for the humanized forms; parents are VHH-hinge-CH2-CH3 of human IgG1; detected by anti-human) EVQLVESGGGLVQPGGSLRLSCAASETYFDLYVMGWYRQAPGKDRELVATITYTGSIKYVDSVKGRFTISRGDAKNSLSLQMNSLRAEDTAVYYCNADPSGLGRKVYWGQGTMVTVSS | 1.21 nM | 0.00327 s⁻¹ | 2.69e+06 M⁻¹ s⁻¹ | 21.3% | 26% | 34.2%
PVRIG-A118-H3 (Fc fusion, humanized variant of PVRIG-A118; also called A118.VH3; not shown: constant part not restated for the humanized forms; parents are VHH-hinge-CH2-CH3 of human IgG1; detected by anti-human) EVQLVESGGGLVQPGGSLRLSCAASETYFDLYVMGWYRQAPGKDRELVATITYTGSIKYVDSVKGRFTISRGDAKNSLYLQMNSLRAEDTAVYYCNADPSGLGRKVYWGQGTMVTVSS | 1.35 nM | 0.00349 s⁻¹ | 2.59e+06 M⁻¹ s⁻¹ | 21% | 25.6% | 33.6%
PVRIG-A118-H6 (Fc fusion, humanized variant of PVRIG-A118; also called A118.VH6; not shown: constant part not restated for the humanized forms; parents are VHH-hinge-CH2-CH3 of human IgG1; detected by anti-human) EVQLVESGGGLVQPGGSLRLSCAASETYFDLYVMGWYRQAPGKDRELVATITYTGSIKIVDSVKGRFTISRGDAKNSLYLQMNSLRAEDTAVYYCNADPSGLGRKVYWGQGTMVTVSS | 1.1 nM | 0.00299 s⁻¹ | 2.71e+06 M⁻¹ s⁻¹ | 19.9% | 24.2% | 31.8%
PVRIG-A118-H1 (Fc fusion, humanized variant of PVRIG-A118; also called A118.VH1; not shown: constant part not restated for the humanized forms; parents are VHH-hinge-CH2-CH3 of human IgG1; detected by anti-human) EVQLVESGGGLVQPGGSLRLSCAASETYFDLYVMGWYRQAPGKDRELVATITYTGSIYYVDSVKGRFTISRDNAKNSLYLQMNSLRAEDTAVYYCNADPSGLGRKVYWGQGTMVTVSS | 0.478 nM | 0.000658 s⁻¹ | 1.38e+06 M⁻¹ s⁻¹ | 11.5% | 14.1% | 18.5%
PVRIG-A118-H5 (Fc fusion, humanized variant of PVRIG-A118; also called A118.VH5; not shown: constant part not restated for the humanized forms; parents are VHH-hinge-CH2-CH3 of human IgG1; detected by anti-human) EVQLVESGGGLVQPGGSLRLSCAASETYFDLYVMGWYRQAPGKDRELVATITYTGSIKYVDSVKGRFTISRGDAKNSVYLQMNSLRAEDTAVYYCNADPSGLGRKVYWGQGTMVTVSS | 1.37 nM | 0.00383 s⁻¹ | 2.79e+06 M⁻¹ s⁻¹ | 21.8% | 26.6% | 35%
PVRIG-A118-H7 (Fc fusion, humanized variant of PVRIG-A118; also called A118.VH7; not shown: constant part not restated for the humanized forms; parents are VHH-hinge-CH2-CH3 of human IgG1; detected by anti-human) EVQLVESGGGLVQPGGSLRLSCAASETYFDLYVMGWYRQAPGKDRELVATITYTGSIKYVDSVKGRFTISRGDAKNSLYLQMNSLRAEDTAVYFCNADPSGLGRKVYWGQGTMVTVSS | 1.08 nM | 0.0026 s⁻¹ | 2.41e+06 M⁻¹ s⁻¹ | 19.7% | 24% | 31.6%
